From patent US20250313633A1 (WUXI BIOLOGICS IRELAND, published 2025)
One block for each binder: values may come before it.

Columns and labels:
[1] = biological target: T1, human full-length B7H3 on MCF-7 cells (human, UniProt Q5ZPR3 29-534); assay: FACS on MCF-7 cells
T1 chain: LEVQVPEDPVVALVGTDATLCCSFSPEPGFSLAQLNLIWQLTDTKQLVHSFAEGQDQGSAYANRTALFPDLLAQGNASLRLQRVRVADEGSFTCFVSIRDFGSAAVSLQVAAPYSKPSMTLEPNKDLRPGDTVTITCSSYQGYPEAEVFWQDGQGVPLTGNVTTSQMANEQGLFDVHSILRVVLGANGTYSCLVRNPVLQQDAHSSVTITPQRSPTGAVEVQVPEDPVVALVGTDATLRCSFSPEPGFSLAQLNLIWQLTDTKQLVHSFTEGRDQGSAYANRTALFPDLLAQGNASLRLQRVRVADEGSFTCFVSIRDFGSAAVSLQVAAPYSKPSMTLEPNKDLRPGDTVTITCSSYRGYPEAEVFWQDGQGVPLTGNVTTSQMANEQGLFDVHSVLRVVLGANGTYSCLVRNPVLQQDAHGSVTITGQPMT

[2] = biological target: T1, human full-length B7H3 on MCF-7 cells; assay: cell-based or functional assay
[3] = biological target: T1, human full-length B7H3 on MCF-7 cells; assay: cell-based or functional assay

Max MFI [1]: 4640 MFI
Internalization on MCF-7, EC50 [2]: 1.95 nM
Internalization on MCF-7, Max MFI [2]: 39800 MFI
B1: Enoblituzumab (MacroGenics) (antibody, V domains shown)
VH: EVQLVESGGGLVQPGGSLRLSCAASGFTFSSFGMHWVRQAPGKGLEWVAYISSDSSAIYYADTVKGRFTISRDNAKNSLYLQMNSLRDEDTAVYYCGRGRENIYYGSRLDYWGQGTTVTVSS
VL: DIQLTQSPSFLSASVGDRVTITCKASQNVDTNVAWYQQKPGKAPKALIYSASYRYSGVPSRFSGSGSGTDFTLTISSLQPEDFATYYCQQYNNYPFTFGQGTKLEIKR

Max MFI [1]: 19800 MFI
Internalization on MCF-7, EC50 [2]: 0.51 nM
Internalization on MCF-7, Max MFI [2]: 57200 MFI
B2: W301088-1.145.16-xIgG1KV320 (antibody, V domains shown)
VH: DVQLQESGPGLVKPSQSLSLTCTVTDYSITGDYAWNWIRQFPGNKLEWMGYISYSGSTSYNPSLQSRISITRDTSKNQFFLQLNSVTSEDTATYFCARSLGRRWYFVVWGAGTTVTVSA
VL: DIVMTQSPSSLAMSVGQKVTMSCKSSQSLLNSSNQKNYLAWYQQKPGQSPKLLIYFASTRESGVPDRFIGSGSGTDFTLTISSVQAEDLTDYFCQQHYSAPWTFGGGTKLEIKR
notes: also called the chimeric antibody; chimeric antibody

internalization, EC50 [3]: 0.51 nM
Max MFI [1]: 19900 MFI
Internalization on MCF-7, EC50 [2]: 0.44 nM
Internalization on MCF-7, Max MFI [2]: 52300 MFI
B3: W301088-1.145.16-z3-p1-uIgG1KV320 (antibody, V domains shown)
VH: QVQLQESGPGLVKPSQTLSLTCTVTDYSITGDYAWNWIRQHPGKGLEWIGYISYSGSTSYNPSLQSRVTISRDTSKNQFSLKLSSVTAADTAVYFCARSLGRRWYFVVWGQGTTVTVSS
VL: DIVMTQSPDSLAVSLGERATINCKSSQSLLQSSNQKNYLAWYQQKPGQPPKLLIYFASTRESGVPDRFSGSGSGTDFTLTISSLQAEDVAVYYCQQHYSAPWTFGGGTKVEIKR
notes: human IgG1 LALA, kappa; also called the final lead antibody; final lead
